The results in this text go back to publication PMC13344147 (Structure (London, England : 1993), 2025).

The series deals with the molecule itself. The series is described as follows: cryo-EM structure.

B1: human CPEB3 residues 1-217 (prion-like domain 1 construct) (domain or fragment, UniProt Q8NE35 1-217, looked up)
chain: MQDDLLMDKSKTQPQPQQQQRQQQQPQPESSVSEAPSTPLSSETPKPEENSAVPALSPAAAPPAPNGPDKMQMESPLLPGLSFHQPPQQPPPPQEPAAPGASLSPSFGSTWSTGTTNAVEDSFFQGITPVNGTMLFQNFPHHVNPVFGGTFSPQIGLAQTQHHQQPPPPAPAPQPAQPAQPPQAQPPQQRRSPASPSQAPYAQRSAAAAYGHQPIMT
For B1, the binding result is “binds”.
